Assay results reported in paper PMC5175368.
Substitutions are numbered along the chain they refer to.

B1: PA1StdG (structured_DNA)
DNA: AGAGAGCGTCGTGTGGACCATGGGGTGAGTGGGTAGGTGTCCTGAGGAGGTGCGCAAGT
B2: PA1StdA (structured_DNA)
DNA: B1 DNA with G24A, G32A

Target: PA63 (cleaved protective antigen) (Bacillus anthracis, UniProt P13423 197-764)
Experiment: filter binding

PA63 (cleaved protective antigen), sequence (P13423 197-764): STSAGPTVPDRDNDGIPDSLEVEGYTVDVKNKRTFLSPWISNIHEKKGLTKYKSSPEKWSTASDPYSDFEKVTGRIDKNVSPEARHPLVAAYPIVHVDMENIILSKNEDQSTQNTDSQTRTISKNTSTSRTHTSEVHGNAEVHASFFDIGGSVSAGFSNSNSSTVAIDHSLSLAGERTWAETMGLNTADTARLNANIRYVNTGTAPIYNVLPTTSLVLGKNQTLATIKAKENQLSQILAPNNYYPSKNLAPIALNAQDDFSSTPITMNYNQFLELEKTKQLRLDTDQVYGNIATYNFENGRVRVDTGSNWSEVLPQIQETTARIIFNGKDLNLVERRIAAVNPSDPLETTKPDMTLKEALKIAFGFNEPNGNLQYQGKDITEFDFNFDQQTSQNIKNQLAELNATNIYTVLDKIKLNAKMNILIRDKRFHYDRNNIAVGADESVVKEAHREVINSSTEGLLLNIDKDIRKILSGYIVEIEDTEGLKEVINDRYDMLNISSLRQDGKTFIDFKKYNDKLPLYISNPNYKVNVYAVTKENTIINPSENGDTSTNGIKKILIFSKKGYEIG

| Binder | binding result |
| --- | --- |
| B1 | no binding |
| B2 | no binding |
| CGTGTGGACCATGGGGTGAGTGGGTAGGTGTCCTGAGGAGGT (structured_DNA) [PA1T4StdG] | no binding |
| CGTGTGGACCATGGAGTGAGTGAGTAGGTGTCCTGAGGAGGT (structured_DNA) [PA1T4StdA] | no binding |
